Usually Kd stands for the constant that tells how readily two partners part at equilibrium. Read a low Kd as tighter binding.

Results on 6 molecules are retold here after publication PMC4858740 (2016).

Sequences and labels used below:
T1: CD45RO ECD (human)
T1 chain: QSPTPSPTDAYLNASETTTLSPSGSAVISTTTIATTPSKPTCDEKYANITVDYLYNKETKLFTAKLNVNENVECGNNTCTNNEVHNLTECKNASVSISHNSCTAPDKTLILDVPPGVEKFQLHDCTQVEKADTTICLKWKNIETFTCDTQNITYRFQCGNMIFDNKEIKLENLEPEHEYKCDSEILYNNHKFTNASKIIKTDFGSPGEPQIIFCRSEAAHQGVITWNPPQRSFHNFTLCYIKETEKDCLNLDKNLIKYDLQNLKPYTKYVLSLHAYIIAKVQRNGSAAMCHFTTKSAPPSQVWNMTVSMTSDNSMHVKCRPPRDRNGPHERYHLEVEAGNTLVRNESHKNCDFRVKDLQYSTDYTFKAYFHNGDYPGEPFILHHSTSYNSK

B1: HAdV-D28 E3/49K (Fc fusion)
chain: QAVHVNLEICYGCNGTLIGPPKTPVEWYDGRGHKLCAGTDTFRKELNHTCNLQNMTLTFVNLTHKGTYYGFGSDNKNSRVYQVTIKPPVLTTRRPLLKPEDVVITKGNNKTLVGPPDTPVDWYDGSGHKLCKGKEVHYPELNHTCNEQNLTLIFVNATFKGTYYGFRKDGTDKKEYRVTIDDLYAKQLKQEKDEKPRSGHDKQKSKSQERQNPKTEERHEHRDVVKEVSFRTGTNQTLVGPPGSNVDWLKIGNGGTFSELCKGDDKHYSCNSQNLTIINVTRSDEGSYYGSNDDSAHYRVSVYDPVQKKRVMKIQPHTTKTTTEGTTKSSTNESDENFALQQGNNGENNQSDETNIPS
B2: HAdV-D37 E3/49K (Fc fusion)
chain: GFHTINATWWANITLVGPPDTPVTWYDTQGLWFCNGSRVKNPQIRHTCNDQNLTLIHVNKTYERTYMGYNRQGTKKEDYKVVVIPPPPATVKPQPEPEYVFVYMGENKTLEGPPGTPVTWFNQDGKKFCEGEKVLHPEFNHTCDKQNLILLFVNFTHDGAYLGYNHQGTQRTHYEVTVLDLFPDSGQMKIENHSEETEQKNDEHHNWQKQGGQKQGGQKTNQTKVNDRRKTAQKRPSKLKPATIEAMLVTVTAGSNLTLVGPKAEGKVTWFDGDLKRPCEPNYRLRHECNNQNLTLINVTKDYEGTYYGTNDKDEGKRYRVKVNTTNSQSVKIQPYTRQTTPDQEHKFELQFETNGNYDSKIPSTT
B3: HAdV-D19a E3/49K (Fc fusion)
chain: GFHTINATWWANITLVGPPDTPVTWYDTQGLWFCNGSRVKNPQIRHTCNDQNLTLIHVNKTYERTYMGYNRQGTKKEDYKVVVIPPPPATVKPQPEPEYVFVYMGENKTLEGPPGTPVTWFNQDGKKFCEGEKVLHPEFNHTCDKQNLILLFVNFTHDGAYLGYNHQGTQRTHYEVTVLDLFPDSGQMKIENHSEETEQKNDEHHNWQKQGGQKQGGQKTNQTKVNDRRKTAQKRPSKLKPATIEAMLVTVTAGSNLTLVGPKAEGKVTWFDGDLKRPCEPNYRLRHECNNQNLTLINVTKDYEGTYYGTNDKDEGKRYRVKVNTTNSQSVKIQPYTRQTTPDQEHKFELQFETNGNYDSKIPSTT
B4: HAdV-D58 E3/49K (Fc fusion)
chain: SQAGFHTINATWWANITLVGPSDTPVTWYDKQGMQFCDGNTVKNPQIRHECNEQNLTLIHVNKTHERTYMGYNRQSTHKEDYKVIVIPPPPATVKPQSGPEYVYVNMGENKTLVGPPGIPVTWYDGEGNKFCDGEKVEHAEFNHTCDVQNLTLLFINLTHDGAYLGYNHQGTKRTWYEVVVTDGFPKSGEMKIEDQSRQTEQKQTGQKQNEHKQGGQKQEGQKETSQKKANDKQKATHRRPSKLKPHTPEAKLITVSSGSNLTLLGPDGKVTWYDDDLKRPCEPGYKLNCKCDNQNLTLINVTKLYEGVYYGTNDGGNGKRYRVKVNTTNSQNVKIQPYTRPTTPDQKHRFELQIDYNQDNDKIPSTT
B5: HAdV-D43 E3/49K (Fc fusion)
chain: QIEHEKQSVQWGKNITLVGPNDKPVEWHGPRDQLCKGKQILHPEFNHTCNEQNLTLLFVNNTFQGIYYGIRNDGRGMKQIQLTVVAPPASTRKPLSKPKQVNVQYGHNVTLEGPPGIPIDWLGPTNQLCKGKEILHPEINHTCNVQNLTLLFVNYTHRGAYFGFNKDGTDRHHYEVTILDGFTNAGQTKEESVSDKSKGKTSSKEKKTQKNNSQRNDDVKELDFPSGSNQTLVGPPGSKVDWYTTKNGDFTKLCDGLNGPKNLCNYQNLTLRNVSRQDEGTYFGSNEQSKHYRVTVYTKPRNQTKRIQPYTTKGTTKSTLGNHSFELQLADDQSNQQDQQIPSTT
B6: HAdV-D24 E3/49K (Fc fusion)
chain: GIHIINATWWDNITLVGPSDTPVTWYDGKGLQFCDGSTVKNPQIRHTCNDQNLTLIHVNKTHERTYMGYRHDSKGKVDYKVTVIPPPPATVKPQPDPENVFVYMGNNVTLVGPPGIPVSWYYHNGTQFCDGDKIIHPEFNHTCDKQNLTLLFVNFTHDGGYLGFNYKGTQRIQYEVIVLDRFPNSGQMKIEEQSEETEQKHTEHNKAGQKQGIDTNQKKANNRQKPSQRPSRRRPTNTPETKQLTVSIGSNLTLVGPDGKVTWYDGDLKRPCEEQNYRLPHQCSAQNLTLINVTKSHEGTYYGTNDKDESKRYRVKVNTTNSQAVKINPYTRPTTPDQKHRFELQIENNANDEESKIPSTT

This experiment addresses T1, CD45RO ECD. Kind of experiment: SPR.
B1 displayed a Kd of 0.33 nM.
With B2, the Kd came to 0.11 nM.
The result for B3 reads 0.06 nM; that for B4, 0.38 nM.
With B5 the figure was 0.38 nM; with B6, 0.08 nM.
